Assay results from patent CN113321729A (DONGDA BIOTECHNOLOGY SUZHOU CO LTD, dated 2021).

T1: 携带组氨酸标签的人IL-12(IL-12-His) (human, UniProt P29459 23-219; P29460 23-328)
T1 construct: Recombinant His-tagged human IL-12 made in mammalian cells; Coated on the plate in the ELISA; also called IL-12蛋白; biotin标记的IL-12-His
T1 sequence (looked up) 1: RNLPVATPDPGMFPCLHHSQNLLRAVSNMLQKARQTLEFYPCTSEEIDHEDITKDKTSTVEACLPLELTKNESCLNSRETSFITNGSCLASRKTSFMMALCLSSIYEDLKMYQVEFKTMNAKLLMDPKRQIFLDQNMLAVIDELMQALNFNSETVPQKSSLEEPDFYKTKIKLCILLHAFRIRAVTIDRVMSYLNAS
T1 sequence (looked up) 2: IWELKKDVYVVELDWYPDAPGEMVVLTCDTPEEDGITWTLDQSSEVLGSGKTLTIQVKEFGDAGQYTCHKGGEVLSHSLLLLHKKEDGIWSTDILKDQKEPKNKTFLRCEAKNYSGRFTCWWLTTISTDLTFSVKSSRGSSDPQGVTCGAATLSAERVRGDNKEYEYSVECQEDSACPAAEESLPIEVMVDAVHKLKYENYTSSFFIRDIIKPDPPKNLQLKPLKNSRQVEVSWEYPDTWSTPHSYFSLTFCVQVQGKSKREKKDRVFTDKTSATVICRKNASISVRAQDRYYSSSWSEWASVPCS

B1: 2A3 (antibody, V domains shown)
VH: EVQLQQSGAELVKPGASVKLSCTASGFNIKDTYMHWLKQRPEQGLEWIGKIDPANGNTKYDPKFQGKATITADTSSNTAYLQLSSLTSEDTAVYYCSRRFYDSGFYYYFYIWGAGTTVTVSS
VL: NIMMTQSPSSLAVSAGEKVTMYCKSSQSVLYSSNQKNYLAWYQQKPGQSPKLLISWASTRESGVPDRFTGSGSGTDFTLTISSVQAEDLAVYYCHQYLSSLTFGAGTKLELK
notes: Mouse hybridoma antibody purified on Protein A; also called IL-12杂交瘤抗体
B2: hu11B4 (antibody, V domains shown)
VH: QVQLVQSGAEVKKPGASVKVSCKASGYAFTDYKMHWVRQAPGQRLEWIGHIYTYNGGADYNQKFKNRATLTVDISASTAYMELSSLRSEDTAVYYCATSGPFAYWGQGTLVTVSS
VL: EIVMTQSPATLSVSPGERATLSCKASQNVGTNVAWYQQKPGQAPRALIYSASKRFSGIPARFSGSGSGTEFTLTISSLQSEDFAVYYCLQYNNFPFTFGQGTKLEIK
notes: also called 11B4人源化抗体; 人源化抗体11B4
B3: Ustekinumab (antibody, V domains shown)
VH: EVQLVQSGAEVKKPGESLKISCKGSGYSFTTYWLGWVRQMPGKGLDWIGIMSPVDSDIRYSPSFQGQVTMSVDKSITTAYLQWNSLKASDTAMYYCARRRPGQGYFDFWGQGTLVTVSS
VL: DIQMTQSPSSLSASVGDRVTITCRASQGISSWLAWYQQKPEKAPKSLIYAASSLQSGVPSRFSGSGSGTDFTLTISSLQPEDFATYYCQQYNIYPYTFGQGTKLEIK
B4: 9E2 (antibody, V domains shown)
VH: EVQLQQSGAELVRPGASVKLSCTASGVNIKDYYMHWVKQRPEKGLEWIGMIDPEDGDTEYAPRFQAKATMTADTSSNTAYLQLNSLTSEDTAVYYCTITTVVRYFDVWGTGTTVRVSS
VL: DLVLSQSPATLSVTPGDSVSLSCRASQSISINLHWYQQKSHESPRLLIKYASQSISGIPSRFSGSGSGTDFTLSINSVETEDFGMYFCQQSNSWPFTFGGGTKLEIK
notes: as for B1
B5: 1B6 (antibody, V domains shown)
VH: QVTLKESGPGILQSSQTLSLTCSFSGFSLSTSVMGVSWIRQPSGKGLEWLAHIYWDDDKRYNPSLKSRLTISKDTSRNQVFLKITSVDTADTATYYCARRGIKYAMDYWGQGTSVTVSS
VL: NIVMTQTPKFLLVSAGDRVTITCKASQSVSNDVAWYQQKPGQSPKLLIYYASNRYTGVPDRFTGSGYGTDFTFTISTVQAEDLAVYFCQQDYTSPWTFGGGTKLEIK
notes: as for B1
B6: 19A4 (antibody, V domains shown)
VH: EVQLVESGGGLVKPGGSLQVSCAASGFSFSSYGMSWVRQTPDKRLEWVATIGSGGLYTYSPDTVKGRFSISRDDAKNTLYLQMNSLTSEDTAMYYCATSGPFAYWGQGTLVTVSA
VL: DIKMTQSPSSMYASLGERVTITCKASQDINRNLNWFQQKPGNSPKTLIIRTNRLVDGVPSRFSGSGSGQVYSLTVSSLEFGDMGIYFCLQFDEFPWTFGGGTTLEIK
notes: as for B1
B7: hu2A3 (antibody, V domains shown)
VH: QVQLVQSGAEVKKPGASVKVSCKASGFNIKDTYMHWVRQAPGQRLEWIGKIDPANGNTKYDPKFQGRATITADTSASTAYMELSSLRSEDTAVYYCSRRFYDSGFYYYFYIWGQGTLVTVSS
VL: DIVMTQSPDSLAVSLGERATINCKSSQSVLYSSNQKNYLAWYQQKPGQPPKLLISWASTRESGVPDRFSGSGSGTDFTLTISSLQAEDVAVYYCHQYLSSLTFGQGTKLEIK
notes: also called 2A3人源化抗体; 人源化抗体2A3

Key:
[1] = biological target: T1, 携带组氨酸标签的人IL-12(IL-12-His); assay: ELISA, IL-12-His coated on plate
[2] = biological target: T1, 携带组氨酸标签的人IL-12(IL-12-His); assay: ELISA, IL-12-His coated on plate; remark: listed apart in the source
[3] = biological target: T1, 携带组氨酸标签的人IL-12(IL-12-His); assay: FACS, blocking of biotin-labelled IL-12-His binding to CHO-IL-12R cells

Binder | binding result [1] | EC50 [2] | IC50 [3]
B1 | binds |  | 
B2 |  | 0.0517 µg/mL | 0.323 µg/mL
B3 |  | 0.0718 µg/mL | 0.224 µg/mL
B4 | binds |  | 
B5 | binds |  | 
B6 | binds |  | 
B7 |  | 0.0571 µg/mL | 0.398 µg/mL
